This note sets out measurements from US20060115837A1 (WASHINGTON UNIVERSITY, published 2006).

In test [1] the target is West Nile Virus envelope protein on WNV virions (West Nile Virus) (UniProt Q9Q6P4). Kind of test: cell-based or functional assay.
Test [2] concerns the target T1, West Nile Virus envelope protein on WNV virions (West Nile Virus, UniProt Q9Q6P4 291-791).
T1 sequence: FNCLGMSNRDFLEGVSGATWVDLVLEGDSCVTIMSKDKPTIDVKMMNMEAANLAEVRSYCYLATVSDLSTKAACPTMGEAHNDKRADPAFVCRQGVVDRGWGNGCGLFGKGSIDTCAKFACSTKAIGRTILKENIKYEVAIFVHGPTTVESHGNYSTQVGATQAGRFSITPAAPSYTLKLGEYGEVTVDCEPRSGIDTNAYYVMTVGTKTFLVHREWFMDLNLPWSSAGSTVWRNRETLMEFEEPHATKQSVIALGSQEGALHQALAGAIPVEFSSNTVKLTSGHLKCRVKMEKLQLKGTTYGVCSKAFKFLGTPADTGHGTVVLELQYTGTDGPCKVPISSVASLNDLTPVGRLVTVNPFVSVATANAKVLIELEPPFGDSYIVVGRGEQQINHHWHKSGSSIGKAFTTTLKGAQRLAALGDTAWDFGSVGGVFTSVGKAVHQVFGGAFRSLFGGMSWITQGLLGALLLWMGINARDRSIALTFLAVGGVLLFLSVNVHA
The experiment in a line: cell-based or functional assay.

monoclonal antibody E60: the blockade of cellular attachment of WNV to Vero cells (cell-associated viral RNA by fluorogenic RT-PCR), fold reduction in test [1] lay within 8 to 9 fold.

B1: monoclonal antibody E16 (antibody, V domains shown)
VH: QVQLQQSGSELMKPGASVQISCKATGYTFSDYWIEWVKQRPGHGLEWIGILCGTGRTRYNEKLKAMATFTADTSSNTAFMQLSSLTSEDSAVYYCARSASYGDYADYWGHGTTLTVSS
VL: DIVMTQSHKFMSTSVGDRVSITCKASQDVSTAVAWYQQKPGQSPKLLISWASTRHTGVPDRFTGSGSGTDYTLTISSVQAEDLALYYCQQHYTTPLTFGAGTKLELK
Take B1: the “blockade of cellular attachment of WNV to Vero cells (cell-associated viral RNA by fluorogenic RT-PCR), fold reduction” value in test [2] is 3.5 fold.
